Test results taken from the DeepSol protein solubility set.

Experiment: soluble on expression in E. coli; label from the status in PepcDB or PDB records

## GPGSMLRAFASPILAKVPYATLFEYNHVLQKVFEAQPSKVALRCELPGMPEVQFTYGQLQRDVVALADAVVRRKEAVAQARGETSLGWLQPSKPAHVRSVFAQGERTPSCDYMKDTGFYTTSLLCGPGYTYAVSLLASWSLNQLVTPMPISQRYKDELMYVLEHSGSRSIVGNTKLLKEKLPAEYEELYVRAEADVDKIPRSASREPKQRNDSDVTSNTFFVDTVYDATLLVRDITAARDIQGTATLETEWLPPAESVCAPMRSAEDLVKRLDEEKATAKARELDRQAEILQQEHVRRNRAPMQATGGADPAGSDADGESLFCFDSAHLDELNRVYQRWYTMPSARPTKYDDCLMLYTSGTTAKPKGVVHTHASVANMVKVLQNAWQWRDTDSILHVLPWHHVHGLVNILLCAIASNARCVVTTFDDAARVAHRLEQGDITLFMAVPTVYVKLSDAVQRKFSPIEKTGFRRACMESVRLMVCGSAPLPVPTLNQFCELSGHTLLERYGMTEIGMALSQPLHPISDRHPGTVGSPLQTVKTYVHQPETAEAMEQASAKEAEYDEVGGLGIASESLFDRYWNNATATKKEVRTNAAGMRFFDTGDTVGVRLPAGKPAVYTILGRSSVDIIKSRGYKLSALEIEATLLARNDLFYEIAVVGAADAVQGESVVAIVAMQPEAARARGIAFGEGFAWHESAAVTEELKKAALQLLAPYKCPSRYIVVPEIPRNPTGKVNKKDLKKVLGLA
  soluble on expression in E. coli: not soluble

## AEAAKPATAADSKAAFKNDDQKSAYALGASLGRYMENSLKEQEKLGIKLDKDQLIAGVQDAFADKSKLSDQEIEQTLQAFEARVKSSAQAKMEKDAADNEAKGKEYREKFAKEKGVKTSSTGLVYQVVEAGKGEAPKDSDTVVVNYKGTLIDGKEFDNSYTRGEPLSFRLDGVIPGWTEGLKNIKKGGKIKLVIPPELAYGKAGVPGIPPNSTLVFDVELLDVKPAPKADAKPEADAKAADSAKK
  soluble on expression in E. coli: soluble

## MGSDKIHHHHHHMQFCSSDEFASKTMIKWPWKVQESAHQTALPWQEALSIPLLTCLTEQEQSKLVTLAERFLQQKRLVPLQGFELDSLRSCRIALLFCLPVLELGLEWLDGFHEVLIYPAPFVVDDEWEDDIGLVHNQRIVQSGQSWQQGPIVLNWLDIQDSFDASGFNLIIHEVAHKLDTRNGDRASGVPFIPLREVAGWEHDLHAAMNNIQEEIELVGENAASIDAYAASDPAECFAVLSEYFFSAPELFAPRFPSLWQRFCQFYQQDPLQRLHHANDTDSFSATNVH
  soluble on expression in E. coli: not soluble

## MDWLLTPGPVRLHPKALEALARPQLHHRTEAAREVFLKARGLLREAFRTEGEVLILTGSGTLAMEALVKNLFAPGERVLVPVYGKFSERFYEIALEAGLVVERLDYPYGDTPRPEDVAKEGYAGLLLVHSETSTGALADLPALARAFKEKNPEGLVGADMVTSLLVGEVALEAMGVDAAASGSQKGLMCPPGLGFVALSPRALERLKPRGYYLDLARELKAQKEGESAWTPAINLVLAVAAVLEEVLPRLEEHLALKAWQNALLYGVGEEGGLRPVPKRFSPAVAAFYLPEGVPYARVKEAFAQRGAVIAGGQGPLKGKVFRLSLMGAYDRYEALGVAGMFREVLEEILPAS
  soluble on expression in E. coli: soluble

## MGSDKIHHHHHHMHFSKEHINALETRTRAHFINSLSGFKSANLIGTQDRQGNTNLSIVSSVIHLGANPPLMGMIIRPHSVPRHTFENIMQTGLYTINHVNQSIYEQAHQTSARYDKDESEFEATGLTPEYLSDFCAPFVKESRLKYSVKLVEHQHLAINGTEFVIGEIVDVYVDDNAVQTDGFIDLQAIDTVAISGLDCYYTGDKLARLPYAKK
  soluble on expression in E. coli: not soluble

## GAMDPMKAKRVQAKIEMEFPSEDVAKVVYEAVLYEHLSVPYRRSEIDFKLEGKKIILDIKATDSSALRGTVNSYLRWIKAAIDVIEV
  soluble on expression in E. coli: soluble

## MGSDKIHHHHHHILLDYVESLVLSSVFPKRDFLSPTSNYLNGLKEVLYYQIFPERFANGDPSNDPNGSQSWDVDPAYANLGGDGFFGGDLKGIIDHFDHILELGVEAIYLNPIFESPSSHKYDTEDYLKIDDNFGNDYVFEEFISLAEDSGIKLILDGVFNHTGYDFFAFKDLREREETSPYKDWYFVKRFPIRKIQDRAMTYVGWNGYAYMPKVNSLNEGWQAYVERLVRKYNLEGIGGWRLDVATEVDPLFWSGFFRPLVKSLEKDMILVAEFWGDARSLLRGKTFDSAMNYPFKEAVIEYVFRAGNSAAKFAAMTNLYLNAYPPQTLHSLWNILDSHDTERILTLAFNQVDLLKIAVAIQMTFIGSPVIYYGDEVGMKGGKDPENRAPMLWDEEKWNWEIYDFYKTLIDLRRTHESIKDGEYEVLTAEGPVFSFRRWKDSEEVIVVINPSRENAFFNPEFEGEFCEYLSGRSISFFENKAEITPLTVWILVQED
  soluble on expression in E. coli: not soluble

## MGSDKIHHHHHHVAKAELMQLPASQMVIGLTVKLPLGWTQHPFFINRIKLTSQAQIELIRGLELTFVYVLSGHELLPEVIEEVEDKQADPMQVKAKPKKVLDSKAAVIKAMRVGQQRFLSNINESRSVFAQFAIEPDKAYREAATMVEGFVDHLQETDTPYLALVGSGEMDVSVTQHGISVAVLSLMIGHALELPKSDLRDLALGSLFHDFGKLKIPDNIRRKRSELTEPEQNYLKMHPNLGFDLLNACNLYPKSVLNIVLHHHEYIDGSGYPDHLTEKDIPLLTQIVSLANDYEGLLEQFTFSPQLALGTLFKSHAKKHAQNLIAALVKVLGIYPPGTLVSLSDGSIGKVMMTTREVKQPHVWSCNLGGGEANLRFLLEEDVTVSSVLRLEELTEGALKTLQADSPISFYFSALPDN
  soluble on expression in E. coli: not soluble

## MSLSQRTYGYGRVSTDEQTTSQQLTAIREAGHKVSDNRFIVDEGVSGGVCAMERPAFRNLVENKLEKGDTLVIAKLDRLGRDNIDVQQVVQMLTDKGIKLFILDLPVADLSSPEGKLMLQMFATFAEFEKNRISERIRDKLKQLKQEGKALGRPTKNVYDDVQELKAQGISQRTIADKLNVSLSTVRRNWVDTKRSLEVVTESGEGHHHHHH
  soluble on expression in E. coli: soluble

## MKFPGPLENQRLSFLLEKAITREAQMWKVNVRKMPSNQNVSPSQRDEVIQWLAKLKYQFNLYPETFALASSLLDRFLATVKAHPKYLSCIAISCFFLAAKTVEEDERIPVLKVLARDSFCGCSSSEILRMERIILDKLNWDLHTATPLDFLHIFHAIAVSTRPQLLFSLPKLSPSQHLAVLTKQLLHCMACNQLLQFRGSMLALAMVSLEMEKLIPDWLSLTIELLQKAQMDSSQLIHCRELVAHHLSTLQSSLPLNSVYVYRPLKHTLVTCDKGVFRLHPSSVPGPDFSKDNSKPEVPVRGTAAFYHHLPAASGCKQTSTKRKVEEMEVDDFYDGIKRLYNEDNVSENVGSVCGTDLSRQEGHASPCPPLQPVSVM
  soluble on expression in E. coli: not soluble
